In article PMC9860117, “The nematode α-catenin ortholog, HMP1, has an extended α-helix when bound to actin filaments” (The Journal of Biological Chemistry, 2022):

Columns and labels:
[1] = biological target: the molecule itself; experiment: SEC; Superdex S200 10/300 Gl, 20 mM Tris pH 8, 150 mM NaCl, 0.2 mM TCEP; monomer and dimer peaks pooled separately and each run a second time
[2] = biological target: the molecule itself; experiment: cryo-EM structure; F-actin (0.7 uM) put on the grid first, then 0.6 mg/ml (21 uM) HMP1/α-catenin FABD added and removed repeatedly; helical reconstruction at 3.36 Å

Row | Protein | stoichiometry N [1] | binding result [2]
1 | full-length human α-catenin (residues 1-906) (natural protein, UniProt P35221 1-906, looked up, cDNA from Open Biosystems; One construct that was isolated as a monomer pool and as a dimer pool; the dimer pool holds two copies of the chain; also called full-length monomeric human α-catenin; full-length dimeric human α-catenin; source: E. coli BL21(DE3), purified similar to HMP1/α-catenin; monomer and dimer SEC peaks pooled separately and run again on Superdex S200; not shown: GST, …) MTAVHAGNINFKWDPKSLEIRTLAVERLLEPLVTQVTTLVNTNSKGPSNKKRGRSKKAHVLAASVEQATENFLEKGDKIAKESQFLKEELVAAVEDVRKQGDLMKAAAGEFADDPCSSVKRGNMVRAARALLSAVTRLLILADMADVYKLLVQLKVVEDGILKLRNAGNEQDLGIQYKALKPEVDKLNIMAAKRQQELKDVGHRDQMAAARGILQKNVPILYTASQACLQHPDVAAYKANRDLIYKQLQQAVTGISNAAQATASDDASQHQGGGGGELAYALNNFDKQIIVDPLSFSEERFRPSLEERLESIISGAALMADSSCTRDDRRERIVAECNAVRQALQDLLSEYMGNAGRKERSDALNSAIDKMTKKTRDLRRQLRKAVMDHVSDSFLETNVPLLVLIEAAKNGNEKEVKEYAQVFREHANKLIEVANLACSISNNEEGVKLVRMSASQLEALCPQVINAALALAAKPQSKLAQENMDLFKEQWEKQVRVLTDAVDDITSIDDFLAVSENHILEDVNKCVIALQEKDVDGLDRTAGAIRGRAARVIHVVTSEMDNYEPGVYTEKVLEATKLLSNTVMPRFTEQVEAAVEALSSDPAQPMDENEFIDASRLVYDGIRDIRKAVLMIRTPEELDDSDFETEDFDVRSRTSVQTEDDQLIAGQSARAIMAQLPQEQKAKIAEQVASFQEEKSKLDAEVSKWDDSGNDIIVLAKQMCMIMMEMTDFTRGKGPLKNTSDVISAAKKIAEAGSRMDKLGRTIADHCPDSACKQDLLAYLQRIALYCHQLNICSKVKAEVQNLGGELVVSGVDSAMSLIQAAKNLMNAVVQTVKASYVASTKYQKSQGMASLNLPAVSWKMKAPEKKPLVKREKQDETQTKIKRASQKKHVNPVQALSEFKAMDSI | 2 | –
2 | HMP1/α-catenin F-actin binding domain (FABD, residues 677-927) (domain or fragment, C. elegans, UniProt P90947 677-927, looked up, Cloned into pGEX-6P-1 with a PreScission site by DNA Custom Cloning; also called HMP1/α-catenin FABD; FABD of HMP1/α-catenin; source: E. coli BL21(DE3), purified as described for full-length HMP1/α-catenin; not shown: GST, N-terminal, cleaved) NLMRRLPEEEKKKIQAQIDIFKVTQTRFEREVAKWDETGNDIISLANNMCKIMMSMTEFTRGCGPLKTTMDVIRAAQEISLNGSKLNALARQIGEESADSQTKKDLLAYLSQITLYCQQLNICSKVKADVTQVGNELVVSALDSAMSLIQTARNLLTAVVQTVKAAYIASTKFRRPNANSVRVEWRMAPPKKQPLIRPQKNNAIIRRASERRPLQPAKVLAEFTRNEIETGRDSDDEELDRRHQQRINGRL | – | binds
